In paper PMC3791407, “Structural Rearrangement in an RsmA/CsrA Ortholog of Pseudomonas aeruginosa Creates a Dimeric RNA-Binding Protein, RsmN”:
Read-outs that look alike come from different tables or passages of the source.

Columns and labels:
[1] = target: RsmN (Pseudomonas aeruginosa PAO1) (UniProt Q02EI1); assay: ITC
[2] = target: RsmN R62A (Pseudomonas aeruginosa PAO1) (UniProt Q02EI1); assay: ITC; conditions: ITC: 125 uM RNA titrated into protein, 25 mM potassium phosphate pH 7, 50 mM NaCl, 298 K; SEC: 50 uM protein, 100 uM RNA, same buffer
[3] = target: RsmN (His6-Thb-RsmN) (Pseudomonas aeruginosa PAO1); assay: SEC + native MS; gel filtration analysis and ESI-MS of the purified His-tagged RsmN construct; conditions in the Supplemental Information
RsmA = RsmA (UniProt O69078 1-61); assay: ITC; 1 hairpin per monomer; ITC: 125 uM RNA titrated into protein, 25 mM potassium phosphate pH 7, 50 mM NaCl, 298 K; SEC: 50 uM protein, 100 uM RNA, same buffer; conditions: protein: recombinant, tags: N-terminal His6-thrombin site (LVPRGS), chain copies: 2, 6-nt loop AAGGAU, G5-C12 closing pair

**Q.** For CCCCGAAGGAUCGGGG [RsmZ-2 hairpin], which Kd ([1]; ITC: 125 uM RNA titrated into protein, 25 mM potassium phosphate pH 7, 50 mM NaCl, 298 K, SEC: 50 uM protein, 100 uM RNA, same buffer) is on record?
**A.** 276 nM

**Q.** And the binding signal (fold lower affinity than wild type) [2]?
**A.** > 1000

**Q.** Which Kd [1] does the source give for GCGCAGGAAGCGC [RsmY-1 hairpin] here?
**A.** 526 nM

**Q.** RsmN (His6-Thb-RsmN) (natural protein) was tested. Which stoichiometry N [3] did it give?
**A.** 2

**Q.** How did the Kd [1] turn out when “UAAAAGGAAUA [PA1003/pqsR ribosome binding site]” was run?
**A.** 704 nM

**Q.** CCCCGAAGGAUCGGGG (structured_RNA) [RsmZ-2 hairpin] was tested. Which Kd (RsmA) did it give?
**A.** 264 ± 43 nM
